{
  "source": "paper PMC5062967",
  "about": "(Nucleic Acids Research, 2016)",
  "molecular_target": "T1, human 5MP2 (ITC sample) (human, UniProt Q7L1Q6 1-419)",
  "T1 sequence": "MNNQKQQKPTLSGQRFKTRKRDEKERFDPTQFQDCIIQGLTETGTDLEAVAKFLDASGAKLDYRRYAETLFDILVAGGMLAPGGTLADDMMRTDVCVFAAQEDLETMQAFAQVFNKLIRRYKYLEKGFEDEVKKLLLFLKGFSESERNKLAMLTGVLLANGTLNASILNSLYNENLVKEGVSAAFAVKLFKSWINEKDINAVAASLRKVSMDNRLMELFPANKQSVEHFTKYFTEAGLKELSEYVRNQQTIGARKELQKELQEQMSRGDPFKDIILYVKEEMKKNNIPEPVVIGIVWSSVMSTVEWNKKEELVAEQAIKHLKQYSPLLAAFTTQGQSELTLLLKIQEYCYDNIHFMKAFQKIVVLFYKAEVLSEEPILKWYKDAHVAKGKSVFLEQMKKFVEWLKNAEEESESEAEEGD",
  "test": "ITC",
  "data": [
    {"binder": "Human eIF2β_(53-136) carrying two K-boxes (domain or fragment) DLEADEEDTRKKDASDDLDDLNFFNQKKKKKKTKKIFDIDEAEEGVKDLKIESDVQEPTEPEDDLDIMLGNKKKKKKNVKFPDE", "values": [
      {"measurement": "Kd", "value": 1500, "unit": "nM"}
    ]}
  ]
}
